Here are results for two substances from patent US20080226675A1.

Experiment [1] deals with mutant A3G D128K, cmyc-tagged (human) (UniProt Q9HC16). Nature of the experiment: cell-based or functional assay.
For experiment [2], the target named is Apolipoprotein B mRNA-editing enzyme-catalytic polypeptide-like 3G (A3G), wild type, cmyc-tagged (human) (UniProt Q9HC16). Nature of the experiment: cell-based or functional assay.

On to “macaque simian immunodeficiency virus Vif (SIVmac Vif)”, for which, in experiment [1], the percent green fluorescent 293T cells after infection with D3GFPD128K vector produced in the presence of SIVmac Vif is 26%. Also, in experiment [2], the percent green fluorescent 293T cells after infection with D3GFP vector produced in the presence of SIVmac Vif was 24%.

With HIV-1 viral infectivity factor (Vif), in experiment [1], the infectivity of HIV-GFP produced from D3GFPD128K-carrying 293T cells in the presence of HIV-1 Vif, percent of control was 1 % of control and the inhibition of HIV-GFP replication (GFP+ 293T cells by flow cytometry) by pD3GFPD128K in the presence of HIV-1 Vif stood at 90%. Also, the infectivity of HIV-GFP produced from D3GFP-carrying 293T cells in the presence of HIV-1 Vif, percent of control in experiment [2] was 89 % of control.
